T1: Transient receptor potential cation channel subfamily V member 6 (TRPV6) protein (human, UniProt Q9H1D0 1-765)
T1 construct: Calcium channel; also called human TRPV6 protein
T1 sequence: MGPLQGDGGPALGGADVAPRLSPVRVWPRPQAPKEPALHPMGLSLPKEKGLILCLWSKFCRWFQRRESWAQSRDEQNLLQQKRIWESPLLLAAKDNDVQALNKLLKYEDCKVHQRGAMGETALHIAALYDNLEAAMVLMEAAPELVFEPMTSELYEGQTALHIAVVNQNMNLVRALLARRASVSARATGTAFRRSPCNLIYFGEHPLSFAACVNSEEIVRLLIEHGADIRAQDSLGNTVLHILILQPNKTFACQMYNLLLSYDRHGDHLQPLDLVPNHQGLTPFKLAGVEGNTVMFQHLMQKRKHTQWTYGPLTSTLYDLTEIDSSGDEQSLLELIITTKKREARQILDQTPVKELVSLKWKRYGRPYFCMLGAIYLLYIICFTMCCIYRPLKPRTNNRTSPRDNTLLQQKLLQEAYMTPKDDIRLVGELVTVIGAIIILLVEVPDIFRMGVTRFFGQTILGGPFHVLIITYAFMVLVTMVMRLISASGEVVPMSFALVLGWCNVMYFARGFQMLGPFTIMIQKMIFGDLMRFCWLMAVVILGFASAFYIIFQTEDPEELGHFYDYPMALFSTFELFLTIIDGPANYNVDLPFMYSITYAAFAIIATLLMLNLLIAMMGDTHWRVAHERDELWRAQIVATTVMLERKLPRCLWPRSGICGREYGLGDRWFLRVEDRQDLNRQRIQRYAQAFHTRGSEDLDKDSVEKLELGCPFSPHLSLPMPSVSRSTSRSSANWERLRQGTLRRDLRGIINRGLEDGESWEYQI

B1: CB-Anti-0001 antibody (antibody, IgG1, V domains shown)
VH: QVQVQQPGAELVKPGTSVKLSCKASGYTFTSYWMHWVKQRPGQGLEWIGEIDPSDGYTNYNQKFRGKATLSVDKSSTTAYMQLSSLTSEDSAVYYCGWAGDFWGQGTTLTVSS
VL: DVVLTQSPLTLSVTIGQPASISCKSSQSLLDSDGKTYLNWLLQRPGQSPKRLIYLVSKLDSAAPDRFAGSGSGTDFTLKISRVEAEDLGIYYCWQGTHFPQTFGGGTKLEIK
notes: also called antibody of hybridoma cell line 12CT 9.5.1; 12CT9.5.1
B2: CB-Anti-0002 antibody (antibody, IgG1, V domains shown)
VH: EVKLEESGGGLVQPGGSMKLSCVASGFTFSYYWMNWVRQSPEKGLEWVAEIRLKSHNYATHYAESVKGRFTISRDDSKSSVYLQMNNLRSEDTGIYYCARLAYDGERYYYALDYWGQGTSVTVSS
VL: DIVMSQSPSSLAVSVGEKFTMSCKSSQSLLYSNNQKNYLAWYQQKPGQSPKLLIYWASTRESGVPDRFTGSGYGTDFTLTISSVKAEDLAVYYCQQYYSYPFTFGSGTKLEIK
notes: also called antibody of hybridoma cell line 16CT 4.1.1.2; 16CT4.1.1.2

Biological target: T1, Transient receptor potential cation …
Experiment: IHC on tissue slices

Binder | binding result
B1 | binds
B2 | binds
